Results published in article PMC10679502.
Primed or numbered codes have the meaning given here. * marks the point of attachment. EDANS′ = N-[2-[(5-sulfo-1-naphthalenyl)amino]ethyl]-L-α-glutamine (donor); DABCYL = 4-((4-(dimethylamino)phenyl)azo)benzoyl (quencher); Benzoyl(2-NHMe) = CNc1ccccc1C(=O)*

B1: ErbFRET EDANS-…-DABCYL (peptide)
peptide: {EDANS′}-LVIVGLTFAV-{DABCYL}
B2: C100FRET NMA-GGVVIATV-DNP (peptide)
peptide: {Benzoyl(2-NHMe)}-GGVVIATV-{Lys(DNP)}

Target: presenilin homolog from the methanogen Methanoculleus marisnigri JR1, wild type (Methanoculleus marisnigri JR1)

Km of cleavage, FRET enzyme kinetics assay (Michaelis-Menten), in DDM, no inhibitor, 37 °C, 500 nM MCM.IAP [µM]	Km of cleavage, FRET enzyme kinetics assay (Michaelis-Menten), in bicelles (DMPC/CHAPSO) [µM]	Km of cleavage, FRET enzyme kinetics assay (Michaelis-Menten), in DDM [µM]	Binder
4.9	6.3		B1
	2.8	7.5	B2
